Laboratory results: patent publication US20200199244A1 (published 2020)

T1: cynomolgus monkey CD40 on CD20+ B cells in blood (Macaca fascicularis (cynomolgus monkey), UniProt P25942 21-277 (human entry))
T1 construct: also called cynoCD40
T1 chain: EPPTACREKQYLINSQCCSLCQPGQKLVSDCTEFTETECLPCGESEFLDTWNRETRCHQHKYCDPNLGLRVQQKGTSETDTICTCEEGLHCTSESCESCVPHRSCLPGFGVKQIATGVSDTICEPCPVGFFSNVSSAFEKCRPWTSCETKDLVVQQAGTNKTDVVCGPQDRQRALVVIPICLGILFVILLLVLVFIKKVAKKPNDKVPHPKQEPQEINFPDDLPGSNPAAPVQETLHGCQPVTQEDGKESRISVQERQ

T2: human CD40 (H76R, W109L, L121P) Fc fusion (human)
T2 construct: Same construct as wt-hCD40 with H76R, W109L and L121P; also called hCD40-M5; hCD40-M5 (H76R, W109L, L121P); not shown: human IgG1 Fc
T2 chain: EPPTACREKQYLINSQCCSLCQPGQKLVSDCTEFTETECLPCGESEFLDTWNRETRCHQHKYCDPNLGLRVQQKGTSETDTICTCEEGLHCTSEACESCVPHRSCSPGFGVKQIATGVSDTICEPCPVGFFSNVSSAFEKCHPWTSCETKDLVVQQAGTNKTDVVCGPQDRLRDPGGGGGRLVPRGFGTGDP

T3: wild type cynomolgus monkey CD40 Fc fusion (cynomolgus monkey (Macaca …))
T3 construct: also called wt-cCD40; wt-cyno-CD40; not shown: human IgG1 Fc
T3 chain: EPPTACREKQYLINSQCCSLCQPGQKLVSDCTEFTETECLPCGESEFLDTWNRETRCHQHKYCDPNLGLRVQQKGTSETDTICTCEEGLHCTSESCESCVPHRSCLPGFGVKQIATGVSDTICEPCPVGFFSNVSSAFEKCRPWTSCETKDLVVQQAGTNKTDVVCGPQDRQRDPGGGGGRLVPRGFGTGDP


Experiments:
[1] = target: T1, cynomolgus monkey CD40 on CD20+ B cells …; experiment: flow cytometry on whole blood, PE-streptavidin detection, gate on CD20+ B cells
Protocol: (§1) 100 μl from each blood sample was aliquoted to 12×75 mm tubes and washed 3 times with FACS buffer (0.5% FBS/PBS/0.1% sodium azide). Tubes were centrifuged for 5 minutes at 1500 rpm, and supernatants were decanted between washes. Following the washes, tubes were placed on ice and incubated with human IgG for 5 minutes to block non-specific binding via Fc receptors.
(§2) For biotin-conjugated dAb detection, PE-labeled streptavidin (Invitrogen) and APC-labeled CD20 antibody (clone 2H7, BD Biosciences) were added to tubes and incubated 30 minutes at room temperature.
(§3) To lyse red blood cells and fix white blood cells following detection antibody incubation, FACS Lysing Solution (BD Biosciences) was added to all tubes, and samples were incubated for 15 minutes at room temperature. Samples were centrifuged and resuspended in FACS Lysing Solution, and analyzed by flow cytometry on a BD FACSCanto™, gating on CD20+ B cells for analysis. For marmoset samples, the CD20 antibody was not cross reactive; therefore analysis was performed on all lymphocytes as identified by forward and side scatter properties (size).

[2] = target: T4, rhesus macaque CD40 on CD20+ B cells in blood (rhesus macaque, UniProt F6SNI1 21-278); experiment: as above
T4 construct: whole, on cells; also called rhesus CD40
Protocol: as §1, §2, §3

[3] = target: T5, marmoset CD40 on blood lymphocytes (marmoset, UniProt Q3LRP1 21-274); experiment: flow cytometry on whole blood, PE-streptavidin detection, all lymphocytes by scatter
T5 construct: whole, on cells
Protocol: as §1, §2, §3

[4] = target: human CD40 on primary human cells (blood CD20+ B cells, tonsillar B cells, monocyte-derived dendritic cells) (human, UniProt P25942 21-277); experiment: flow cytometry on human whole blood, PE-streptavidin detection, gate on CD20+ B cells
Protocol: as §1, §2, §3

[5] = target: T6, human CD40 (W109L) Fc fusion (human, UniProt P25942 21-193); experiment: SPR, ProteOn XPR36; CD40-Fc captured, dAb analyte
T6 construct: Same construct as wt-hCD40 with W109L; also called hCD40-M2; hCD40 M2 (W109L); not shown: human IgG1 Fc

[6] = target: T7, human CD40 (W109R) Fc fusion (Chimpanzee CD40) (human, UniProt P25942 21-193); experiment: SPR, ProteOn XPR36; CD40-Fc captured, dAb analyte
T7 construct: Same construct as wt-hCD40 with W109R (the residue of chimpanzee CD40); also called hCD40-M3; hCD40 M3 (W109R); not shown: human IgG1 Fc

[7] = target: T8, human CD40 (W109L, L121P) Fc fusion (human, UniProt P25942 21-193); experiment: SPR, ProteOn XPR36; CD40-Fc captured, dAb analyte
T8 construct: Same construct as wt-hCD40 with W109L and L121P; also called hCD40-M4; hCD40 M4 (W109L, L121P); not shown: human IgG1 Fc

[8] = target: T2, human CD40 (H76R, W109L, L121P) Fc …; experiment: SPR, ProteOn XPR36; CD40-Fc captured, dAb analyte
Protocol: (§4) Assays were performed on a BioRad ProteOn XPR36 SPR instrument. The SPR surfaces were prepared by immobilizing 8 μg/ml anti-human IgG(Fc) antibody (Biacore/GE Healthcare) in 10 mM sodium acetate pH 4.5 on a BioRad GLC sensor chip using standard ethyl(dimethylaminopropyl) carbodiimide (EDC)/N-hydroxysuccinimide (NHS) chemistry, with ethanolamine blocking. The running buffer for immobilization and kinetic binding analysis was 10 mM sodium phosphate, 130 mM sodium chloride, 0.05% tween 20, pH 7.1. CD40-Fc fusion proteins at concentrations of 20 μg/ml were captured in the vertical orientation on these surfaces via the Fc tail, and reference surfaces lacking CD40-Fc proteins were used for reference subtraction. […] The surfaces were regenerated in both horizontal and vertical orientations with 30 s pulses of 3 M MgCl₂ followed by running buffer at 60 μl/min. Sensogram data was double-referenced and then fitted to a 1:1 Langmuir model using BioRad ProteOn Manager V.2.1.0.38 software, to determine the association rate constant (ka), the dissociation rate constant (kd), and the equilibrium dissociation constant (KD).

[9] = target: T3, wild type cynomolgus monkey CD40 Fc …; experiment: SPR, ProteOn XPR36; CD40-Fc captured, dAb analyte
Protocol: as §4

[10] = target: T9, wild type human CD40 Fc fusion (human, UniProt P25942 21-193); experiment: SPR, ProteOn XPR36; CD40-Fc captured, dAb analyte; 1:1 fit;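 as to Kd: CD40-Fc captured on anti-human IgG(Fc) surface of a GLC chip, buffer pH 7.1, sensorgrams double-referenced against surfaces without CD40-Fc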;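 as to koff: CD40-Fc captured on anti-human IgG(Fc) surface of a GLC chip, buffer pH 7.1, sensorgrams double-referenced against surfaces without CD40-Fc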;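 as to kon: CD40-Fc captured on anti-human IgG(Fc) surface of a GLC chip, buffer pH 7.1, sensorgrams double-referenced against surfaces without CD40-Fc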
T9 construct: also called wt-hCD40; not shown: human IgG1 Fc

[11] = target: T10, human CD40 (H76R) Fc fusion (human, UniProt P25942 21-193); experiment: as above
T10 construct: also called hCD40-M1; hCD40 M1 (H76R); not shown: human IgG1 Fc

[12] = target: T9, wild type human CD40 Fc fusion; experiment: SPR, ProteOn XPR36; CD40-Fc captured, dAb analyte; 1:1 fit; repeat
Protocol: as §4

binding result [1] | binding result [2] | binding result [3] | binding result [4] | Kd [10] [nM] | koff [10] [s⁻¹] | kon [10] [M⁻¹ s⁻¹] | Kd [11] [nM] | koff [11] [s⁻¹] | kon [11] [M⁻¹ s⁻¹] | Kd [12] [nM] | koff [12] [s⁻¹] | kon [12] [M⁻¹ s⁻¹] | Binder | binding result [5] | binding result [6] | binding result [7] | binding result [8] | binding result [9]
no binding | no binding | no binding | binds |  |  |  |  |  |  |  |  |  | BMS3h38-2-biotin (other, biotin-conjugated; site not stated, Biotin conjugate of dAb BMS3h-38-2; also called biotin-conjugated dAb) VH: EVQLLASGGGLVQPGGSLRLSCAASGFTFEEEEMIWVRQAPGKGLEWVSAISGSGGSTYYADSVKGRFTISRDNSKNTLYLQMNSLRAEDTAVYYCGKEPFRYDYWGQGTLVTVSS |  |  |  |  | 
 |  |  |  | 5.07 | 0.000608 | 120000 | 7.15 | 0.001 | 140000 | 8.04 | 0.00114 | 142000 | BMS3h-38-2 (other, Anti-human CD40 domain antibody (dAb), single VH domain) VH: EVQLLASGGGLVQPGGSLRLSCAASGFTFEEEEMIWVRQAPGKGLEWVSAISGSGGSTYYADSVKGRFTISRDNSKNTLYLQMNSLRAEDTAVYYCGKEPFRYDYWGQGTLVTVSS | no binding (tested: dAb tested up to 405 nM) | no binding (tested: dAb tested up to 405 nM) | no binding (tested: dAb tested up to 405 nM) | no binding (tested: dAb tested up to 405 nM) | no binding (tested: dAb tested up to 405 nM)
